What was measured:
[1] = molecular target: T1, ICAM-1 (Homo sapiens, UniProt P05362); assay: FACS binding to COS cell transfectants; conditions: antibody 5.0 ug/ml
T1 construct: express the full length ICAM-1 and ICAM-R proteins, respectively; expressed in transfected cells; host or cells: COS cells, DEAE-dextran, plasmid pcDNA1AmpICAM-1
Description: (§1) For the anti-ICAM-R monoclonal antibody binding assay, COS cells transfected with constructs encoding the ICAM-R chimeric proteins or control constructs were removed from the plates by EDTA treatment and aliquoted at 2.5×10^5 cells per well in a 96-well round bottom plate. Cells were washed 3 times with ice cold washing buffer (PBS containing 1% BSA and 0.05% sodium azide). Anti-ICAM-R monoclonal antibody was applied at 5.0 ug/ml in 50 ul final volume and incubated on ice for 30 minutes. Cells were then washed three times with cold washing buffer and incubated with the FITC labeled secondary antibody (sheep anti-mouse IgG F(ab′)2) at a 1:100 dilution on ice for 30 minutes in dark in 50 ul final volume. After the incubation, cells were washed again for three times in the ice cold washing buffer and resuspended in 200 ul of 1% paraformaldehyde. The samples were analyzed on a Becton-Dickinson FACScan instrument. Results of the assay are given below in Table 5 as percent positive COS cell transfectants, wherein MOPC 21 (IgG1) and UPC 10 (IgG2a) are isotype matched controls, 18E3D is an ICAM-1 specific monoclonal antibody and ICR-1.1 to ICR-9.2 are ICAM-R specific monoclonal antibodies. The reactivities of monoclonal antibodies ICR-1.1 through ICR-9.2 were assayed in a different experiment than monoclonal antibodies ICR-12.1 through ICR-17.1.

[2] = molecular target: T2, ICAM-R (Homo sapiens, UniProt P32942); assay: FACS binding to COS cell transfectants; conditions: antibody 5.0 ug/ml
T2 construct: express the full length ICAM-1 and ICAM-R proteins, respectively; expressed in transfected cells; host or cells: COS cells, DEAE-dextran, plasmid pcDNA1AmpICAM-R
T2 sequence (P32942 30-547): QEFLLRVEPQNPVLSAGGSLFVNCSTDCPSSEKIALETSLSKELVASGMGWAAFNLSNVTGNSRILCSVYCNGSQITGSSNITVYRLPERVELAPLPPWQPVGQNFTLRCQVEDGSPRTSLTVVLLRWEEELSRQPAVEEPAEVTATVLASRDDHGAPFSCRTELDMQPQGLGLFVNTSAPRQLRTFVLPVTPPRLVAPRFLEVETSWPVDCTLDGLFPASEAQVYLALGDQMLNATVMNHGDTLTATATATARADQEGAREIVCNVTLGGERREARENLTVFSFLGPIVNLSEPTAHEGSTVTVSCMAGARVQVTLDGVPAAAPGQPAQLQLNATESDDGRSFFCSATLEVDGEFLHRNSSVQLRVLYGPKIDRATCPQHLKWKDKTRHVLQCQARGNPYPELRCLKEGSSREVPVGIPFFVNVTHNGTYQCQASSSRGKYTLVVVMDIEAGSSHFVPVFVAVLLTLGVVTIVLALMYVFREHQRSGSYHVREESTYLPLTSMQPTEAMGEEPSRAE
Description: as §1

T1 sequence (P05362 28-532): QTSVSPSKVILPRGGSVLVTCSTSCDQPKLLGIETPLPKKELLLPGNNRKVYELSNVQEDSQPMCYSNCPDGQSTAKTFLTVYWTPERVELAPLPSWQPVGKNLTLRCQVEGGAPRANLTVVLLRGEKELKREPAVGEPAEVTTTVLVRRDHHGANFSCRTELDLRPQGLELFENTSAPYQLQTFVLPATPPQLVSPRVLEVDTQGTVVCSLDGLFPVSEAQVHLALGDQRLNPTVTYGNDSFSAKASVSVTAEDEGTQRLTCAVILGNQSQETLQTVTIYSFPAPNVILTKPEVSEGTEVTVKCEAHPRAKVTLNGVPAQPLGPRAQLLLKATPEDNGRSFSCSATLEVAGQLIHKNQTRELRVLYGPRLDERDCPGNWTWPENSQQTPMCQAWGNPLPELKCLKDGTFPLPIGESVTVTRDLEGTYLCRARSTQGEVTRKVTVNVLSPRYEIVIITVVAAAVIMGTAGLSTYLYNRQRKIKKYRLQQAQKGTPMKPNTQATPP

B1: ICR-1.1: anti-ICAM-R monoclonal antibody, IgG2a, domain 1, ATCC HB 11053 (antibody, V domains shown)
VH: QVQLQQSGAELAKPGASVKMSCKASGYTFTVYWMHWVKQRPGQGLEWIGYINPNTDYTEYNQRFQDKATLTADKSSSTAYMQLSSLTSEDSAVYYCARWGGNSYGLDYWGQGTSVTVSS
VL: QIVLTQSPALMSASPGEKVTMTCSASSSVSYIYWYQQKPRSSPKPWIYLTSNLASGVPARFSGSGSGASYSLTISIMEAEDAATYYCQQWKSIPLTFGAGTKLELK
percent positive COS cell transfectants, ICAM-1 [1]: 2.43%
percent positive COS cell transfectants, ICAM-R [2]: 54.33%

Source: patent US20040248211A1, “ICAM-related protein” (priority 1992, published 2004)
